From the RNAGym collection of RNA variant scans (doi:10.1093/molbev/msab373)

B1: Azoarcus group I ribozyme (parent)
chain: GUGCCUUGCGCCGGGAAACCACGCAAGGGAUGGUGUCAAAUUCGGCGAAACCUAAGCGCCCGCCCGGGCGUAUGGCAACGCCGAGCCAAGCUUCGGCGCCUGCGCCGAUGAAGGUGUAGAGACUAGACGGCACCCACCUAAGGCAAACGCUAUGGUGAAGGCAUAGUCCAGGGAGUGGCGAAAGUCACACAAACCGG

Variants of: B1
Assay: reverse-splicing fitness (ratio to wild type); higher = more active; in vitro selection; Mg2+ level not given
Summary of the method: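 An in vitro group I ribozyme library with randomized positions was T7-transcribed and gel-purified. In triplicate, 10 pmol RNA in EPPS pH 7.5 was reacted with 50 pmoles of a 30-nt RNA substrate for 1 h at 37 °C across several added MgCl2 levels (1–48 mM), then stopped with EDTA. Products were reverse transcribed from a substrate-complementary primer, PCR-amplified and sequenced (HiSeq 4000). Fitness is a variant's read proportion after selection over that before, normalised to wild type.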

Row | Variant | reverse-splicing fitness
1 | C82G A111C A120G C169U U176G | 0.00516
2 | C82G A111C A120G C169U U176A | 0.0181
3 | C82G A111C A120G C169U U176C | 0.0141
4 | C82G A111C A120G U176G | 0.00753
5 | C82G A111C A120G U176C | 0.0226
6 | C82G A111C A120G U176A | 0.0162
7 | C82G A111C A120U A145C C150A C169U | 0.00329
8 | C82G A111C A120U A145C C150A C169A | 0.00203
9 | C82G A111C A120U A145C C150A C169G | 0.00326
10 | C82G A111C A120U A145C C150A C169G U176G | 0.00223
11 | C82G A111C A120U A145C C150A C169G U176C | 0.00286
12 | C82G A111C A120U A145C C150A C169G U176A | 0.00319
13 | C82G A111C A120U A145C C150U C169A | 0.00304
14 | C82G A111C A120U A145C C150U C169G | 0.00299
15 | C82G A111C A120U A145C C150U C169U | 0.003
16 | C82G A111C A120G A145U C150U C169U | 0.00896
17 | C82G A111C A120U A145C C150U U176C | 0.00491
18 | C82G A111C A120U A145C C150U U176A | 0.00523
19 | C82G A111C A120U A145C C150U U176G | 0.00325
20 | C82G A111C A120G C150U U176A | 0.0119
21 | C82G A111C A120G C150U U176C | 0.0217

Row | Variant | reverse-splicing fitness
22 | C82G A111C A120G C150U U176G | 0.00715
23 | C82G A111C A120G C150G U176G | 0.00284
24 | C82G A111C A120G C150G U176A | 0.00843
25 | C82G A111C A120G C150G U176C | 0.0153
26 | C82G A111C A120G C150G C169A | 0.00888
27 | C82G A111C A120G C150G C169G | 0.00781
28 | C82G A111C A120G C150G C169U | 0.00835
29 | C82G A111C A120U A145C C150G U176A | 0.00364
30 | C82G A111C A120U A145C C150G U176G | 0.00221
31 | C82G A111C A120U A145C C150G U176C | 0.00457
32 | C82G A111C A120U A145C C150A U176A | 0.00374
33 | C82G A111C A120U A145C C150A U176C | 0.00361
34 | C82G A111C A120U A145C C150A U176G | 0.00247
35 | C82G A111C A120G A145U C150U C169U U176C | 0.0139
36 | C82G A111C A120G A145U C150U C169U U176G | 0.00531
37 | C82G A111C A120G A145U C150U C169U U176A | 0.0143
38 | C82G A111C A120U A145C C150A C169U U176C | 0.00331
39 | C82G A111C A120U A145C C150A C169U U176G | 0.00237
40 | C82G A111C A120U A145C C150A C169U U176A | 0.00291
41 | C82G A111C A120U A145C C169A U176C | 0.00237
42 | C82G A111C A120U A145C C169A U176A | 0.0016

Row | Variant | reverse-splicing fitness
43 | C82G A111C A120U A145C C169A U176G | 0.00216
44 | C82G A111C A120U A145C C150G C169A U176C | 0.00252
45 | C82G A111C A120U A145C C150G C169A U176G | 0.00274
46 | C82G A111C A120U A145C C150G C169A U176A | 0.00295
47 | C82G A111C A120G C169G U176C | 0.0224
48 | C82G A111C A120G C169G U176A | 0.0184
49 | C82G A111C A120G C169G U176G | 0.0044
50 | C82G A111C A120U A145C C150G C169U U176C | 0.00324
51 | C82G A111C A120U A145C C150G C169U U176A | 0.00358
52 | C82G A111C A120U A145C C150G C169U U176G | 0.00222
53 | C82G A111C A120U A145G C150A C169U | 0.00514
54 | C82G A111C A120U A145G C150A C169A | 0.00787
55 | C82G A111C A120U A145G C150A C169G | 0.0054
56 | C82G A111C A120G C150U C169U | 0.00939
57 | C82G A111C A120G C150U C169G | 0.0113
58 | C82G A111C A120G C150U C169A | 0.0111
59 | C82G A111C A120G A145U C169A U176A | 0.0115
60 | C82G A111C A120G A145U C169A U176C | 0.00997
61 | C82G A111C A120G A145U C169A U176G | 0.00439
62 | C82G A111C A120U A145C C150G | 0.008
63 | C82G A111C A120U A145C C150A | 0.00458

Row | Variant | reverse-splicing fitness
64 | C82G A111C A120U A145C C150U | 0.0115
65 | C82G A111C A120G C150A U176A | 0.014
66 | C82G A111C A120G C150A U176C | 0.0193
67 | C82G A111C A120G C150A U176G | 0.0081
68 | C82G A111C A120U A145C C169U | 0.00341
69 | C82G A111C A120U A145C C169A | 0.00204
70 | C82G A111C A120U A145C C169G | 0.00323
71 | C82G A111C A120U A145G C150A C169A U176C | 0.00453
72 | C82G A111C A120U A145G C150A C169A U176G | 0.0032
73 | C82G A111C A120U A145G C150A C169A U176A | 0.00791
74 | C82G A111C A120U A145G | 0.0506
75 | C82G A111C A120U A145C | 0.0432
76 | C82G A111C A120G C150A C169U U176C | 0.0171
77 | C82G A111C A120G C150A C169U U176G | 0.00512
78 | C82G A111C A120G C150A C169U U176A | 0.022
79 | C82G A111C A120G A145U C169G U176C | 0.0132
80 | C82G A111C A120G A145U C169G U176A | 0.0117
81 | C82G A111C A120G A145U C169G U176G | 0.00458
82 | C82G A111C A120G C150G C169A U176C | 0.0102
83 | C82G A111C A120G C150G C169A U176A | 0.00915
